Assay results from the supplement of paper PMC7125110.
± gives the standard error. For part of these data: Variants at the floor of the assay were thinned out.

B1: glmS ribozyme (parent)
chain: AUAAAAGCGCCAGAACUACAGAAAUGUAGUUGACGAGGAGGAGGUUUAUCGAAUUUUCGGCGGAUGCCUCCAAA

Columns and labels:
Conditions in all cases: with glucosamine-6-phosphate
[1] = variants of: B1; assay: kcat; higher = faster cleavage; RNA array
Outline: (§1)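 Weighted Michaelis–Menten fits across concentrations supplied kcat and KM, based on kobs from one- or two-exponential decay fits to normalised per-tile medians. The data came from barcoded ribozyme variants transcribed in situ by E. coli RNA polymerase on sequenced MiSeq chips and tracked at 37 °C by a hybridised Cy3 probe. Glucosamine-6-phosphate (40 μM to 10 mM) in HEPES/KCl/Mg(OAc)2 buffer was flowed in.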

[2] = variants of: B1; assay: KM; higher = weaker cofactor use; RNA array
Outline: as §1

[3] = variants of: B1; assay: self-cleavage kobs at 10000 uM GlcN6P; higher = faster cleavage; RNA array
Outline: as §1

[4] = variants of: B1; assay: self-cleavage kobs at 640 uM GlcN6P; higher = faster cleavage; RNA array
Outline: as §1

[5] = variants of: B1; assay: self-cleavage kobs at 2500 uM GlcN6P; higher = faster cleavage; RNA array
Outline: as §1

[6] = variants of: B1; assay: self-cleavage kobs at 40 uM GlcN6P; higher = faster cleavage; RNA array
Outline: as §1

[7] = variants of: B1; assay: self-cleavage kobs at 160 uM GlcN6P; higher = faster cleavage; RNA array
Outline: as §1

Variant | kcat [1] [s⁻¹] | KM [2] [mM] | self-cleavage kobs at 10000 uM GlcN6P [3] [s⁻¹] | self-cleavage kobs at 640 uM GlcN6P [4] [s⁻¹] | self-cleavage kobs at 2500 uM GlcN6P [5] [s⁻¹] | self-cleavage kobs at 40 uM GlcN6P [6] [s⁻¹] | self-cleavage kobs at 160 uM GlcN6P [7] [s⁻¹]
AUAAAAGCGCCACAACUACAGAAAUGUAGUCUACGAGGAGGAGGUUUAUCGAAUUUUCGGCGGAGGUCUCCAAA | 6.88e-05 ± 4.5e-06 | 3.04 ± 0.64 | 5.26e-05 ± 1.4e-05 | – | – | – | –
AUAAAAGCGCCACUACUACAGAAAUGUAGUUGACGAGGAGGAGGUUUAUCGAAUUUUCGGCGGAUGCCUCCAAA | 0.000311 ± 2.1e-05 | 2.1 ± 0.32 | 0.00025 ± 3.1e-05 | 6.86e-05 ± 1.5e-05 | 0.000186 ± 3e-05 | – | –
AUAAAAGCGCCACAACUACAGAAAUGUAGUUGACGAGGAGGAGGUUUAUCGAUUUUUCGGCGGAUGCCUCCAAA | 0.000137 ± 1.4e-05 | 5.25 ± 1.3 | 8.95e-05 ± 1.3e-05 | – | 4.93e-05 ± 1.6e-05 | – | –
AUAAAAGCGCCAAAACUACAGAAAUGUAGUUGACGAGGAGGAGGUUUAUCGAAUUUCCGGCGGAUGCCUCCAAA | 7.9e-05 ± 5.5e-06 | 4.54 ± 0.78 | 5.42e-05 ± 8.5e-06 | – | 2.88e-05 ± 9.2e-06 | < 1e-05 | –
AUAAAAGCGCCACAACUACAGAAAUGUAGUUGACGAGGACGAGGUUUAUCGAAUUUUCGGCGGAUGCCUCCAAA | 4.48e-05 ± 2e-05 | – | – | – | – | < 1e-05 | < 1e-05
AUAAAAGCGCCACAACUACAGAAAUGUAGUUGACGAGGAGGAGGUUUAUCGAAUUUUCGGCGGAUGUCUCCAAA | 4.46e-05 ± 7.3e-06 | – | 4.04e-05 ± 7.8e-06 | – | 4.34e-05 ± 1.3e-05 | – | –
AUAAAAGCGCCACAGCUACAGAAAUGUAGUUGACGAGGAGGAGGAUUAUCGAAUUUUCGGCGGAUGCCUCCAAA | 0.000289 ± 4.4e-05 | 3.49 ± 0.95 | 0.000208 ± 4.4e-05 | 4.01e-05 ± 1.3e-05 | 0.000129 ± 2.4e-05 | < 1e-05 | –
AUAAAAGCGCCACAACUACAGAAAUGUAGCUGACGAGGAGGAGGUUUAUCGAAUUUUCGGCGGAUGCCUCCAAA | 0.000129 ± 2e-05 | 1.47 ± 0.48 | – | 4.05e-05 ± 1.7e-05 | 8.07e-05 ± 2e-05 | < 1e-05 | –
AUAAAAGCGCCACAACUACAGAAAUGUAGUUGACGAGGAGGAGGAUUAUCGAAUUUUCGGCGGAUGCCUCCAAA | 0.000315 ± 0.00011 | – | 0.000213 ± 3.9e-05 | 6.93e-05 ± 3.2e-05 | 9.3e-05 ± 2.3e-05 | – | –
AUAAAAGCGCCACAACUACAGAAAUGUAGUUGACGAGGAGAAGGUUUAUCGAAUUUUCGGCGGAUGCCUCCAAA | 5.76e-05 ± 4.7e-06 | – | – | < 1e-05 | – | < 1e-05 | –
AUAAAAGCGCCAAAACUACAGAAAUGUAGUUGACGAGGAGGAGGUUUAUCGAAUUAUCGGCGGAUGCCUCCAAA | 0.000767 ± 0.0001 | 3.96 ± 0.75 | 0.000519 ± 0.00011 | 0.000106 ± 1.3e-05 | 0.000312 ± 3.9e-05 | – | 2.49e-05 ± 1e-05
AUAAAAGCGCCACAACUACAGAAAUGUAGUCGACGAGGAGGAGGUUUAUCGAAUUUUCGGCGGAUGCCUCCAAA | 0.0015 ± 0.00033 | 3.46 ± 1.2 | 0.00109 ± 0.00014 | 0.000211 ± 2.9e-05 | 0.000748 ± 0.00013 | 3.14e-05 ± 1e-05 | 0.000104 ± 4.3e-05
AUAAAAGCGCCACAAAUACAGAAAUGUAGUUGACGAGGAGGAGGUUUAUCGAAUUUUCGGCGGAUGCCUCCAAA | 0.000101 ± 1.7e-06 | 0.712 ± 0.055 | 9.42e-05 ± 1.4e-05 | 4.82e-05 ± 1.7e-05 | 7.81e-05 ± 1.4e-05 | – | –
AUAAAAGCGCCACCACUACAGAAAUGUAGUUGACGAGGAGGAGGAUUAUCGAAUUUUCGGCGGAUGCCUCCAAA | 0.000417 ± 0.00017 | – | 0.000262 ± 5.6e-05 | – | 0.000212 ± 4.3e-05 | – | –
AUAAAAGCGCCACAACUACAGAAAUGUAUUUGACGAGGAGGAGGUUUAUCGAAUUUUCGGCGGAUGCCUCCAAA | 0.000169 ± 1.6e-05 | 3.7 ± 0.71 | 0.000125 ± 1.6e-05 | 3.22e-05 ± 1.3e-05 | 6.58e-05 ± 8.4e-06 | – | –
AUAAAAGCGCCACAACUACAGAAAUGUAGUUGACGAGGAGGAGGUUUAUCGAAUUUUCGGCGGAUGCCUCGAAA | 2.45e-05 ± 2.8e-06 | – | – | – | – | – | –
AUAAAAGCGCCACAACUACAGAAAUGUAGCUGACGAGGAGGAGGUUUAUCGGAUUUUCGGCGGAUGCCUCCAAA | 1.64e-05 ± 4.9e-06 | – | – | – | – | – | –
AUAAAAGCGCCACUACUACAGAAAUGUAGUUGACGAGGAGGAGGUUUAUCGAAUUUUCGGCGGAUGCUUCCAAA | 1.07e-05 ± 1.2e-06 | – | – | – | – | – | –
AUAAAAGCGCCAAAACUACAGAAAUGUAGUUGACGAGGAGGAGGUUUAUCGAAUUAUCGGCGGGUGCCUCCAAA | 0.000331 ± 5.8e-05 | 2.31 ± 0.84 | 0.000291 ± 6.6e-05 | 8.33e-05 ± 2.5e-05 | 0.000158 ± 3e-05 | – | –
